Assay results taken from patent US20250361295A1 (ANTENGENE BIOLOGICS, published 2025).
Residue numbers refer to the chain shown, from its start.

B1: ch44-F10-B6-D4 (antibody, V domains shown)
VH: EVHLVESGGGLVKPGGSLKLSCAASGFTFSSYAMSWVRQTPEKRLEWVATISSGGSYIYYPDSVKGRFTISRDNAKNTLYLQMSSLRSEDTAMYYCARQDWDGGDYYAMDYWGQGTSVTVSS
VL: DIVMTQSPSSLAVSAGEKVTMSCKSSQSVLYSSNQKNFLAWYQQKPGQSPKLLIYWASTRESGVPDRFTGSGSGTDFTLTISSVQAEDLAVYYCHQYLSSLTFGAGTKLELK
B2: ch4-E6-E4-B12 (antibody, V domains shown)
VH: EVQLKESGAELVKPGASVKLSCKASGYTFTSHWMHWVKQRPGQGLEWIGEINPSNGRTNYNEKFTSKATLTVDQSSSTAYMQLSSLTSEDSAVYYCARGNLTTVVPFDYWGQGTALTVSS
VL: DIVMTQSPSSLSASLGGKVTITCKASQDINKFIAWYQHKPGKGPRLLIHFTSTLQPGIPSRFSGSGSGRDYSFSISNLEPEDIATYFCLQYDLLLTFGGGTKLEIK
B3: ch2-H8-C9-F7-E2 (antibody, V domains shown)
VH: B2 VH with K5Q, E6Q, S31N, H32Y, T65K, Q74K, N100S, A115T
VL: DIQMTQTPSSLSASLGGKVTITCKASQDINNYIAWYQHKPGKGPRLLIHYTSTLQPGIPSRFSGSGSGRDYSFSISNLEPEDIATYFCLQYDILLTFGGGTKLEK
B4: h2-H1-D7-E5-D5 (antibody, V domains shown)
VH: EVQLVESGGGLVQPGGSLRLSCAASGFTFSSFGMHWVRQAPGKGLEWVAYISSGSSSIYYADTVKGRFTISRDNAKNSLYLQMNSLRAEDTAVYYCARGTGTGAMDYWGQGTLVTVSS
VL: DIQMTQSPSSLSASVGDRVTITCRTSQDISNYLNWYQQKPGKAPKLLIYYTSKLHSGVPSRFSGSGSGTDFTFTISSLQPEDIATYFCQQGNTLPWTFGGGTKLEIK
notes: humanized antibody of ch2-H1-D7-E5-D5; also called humanized 2-H1-D7-E5-D5
B5: h8-B3-F6-H8 (antibody, V domains shown)
VH: EVQLVESGGGLVQPGGSLRLSCAASGFDFSRYWMSWVRQAPGKGLVWIGEINPESSAINYAPSLKDRFTISRDNAKNTLYLQMNSLRAEDTAVYYCATSMTMDYWGQGTLVTVSS
VL: DIQMTQSPSSLSASVGDRVTITCKASQDIKSYLSWYQQKPGKAPKTLIYYATSLAGGVPSRFSGSGSGTDYTLTISSLQPEDFATYYCLQHGESPYTFGGGTKLEIK
notes: humanized antibody of ch8-B3-F6-H8; also called humanized 8-B3-F6-H8
B6: IO-202 (antibody, V domains shown)
VH: EVQLLESGGGLVQPGGSLRLSCAASGIDFSNHYYMYWVRQAPGKGLEWIGSIFSGDSASTYYADSAKGRFTISRDNSKNTLYLQMNSLRAEDTAVYYCARGMSTNDWASDLWGQGTLVTVSS
VL: DIQMTQSPSSLSASVGDRVTITCQASESINSIYLAWYQQKPGKAPKLLIYRASTLASGVPSRFSGSGSGTDFTLTISSLQPEDFATYYCQQSYDWGDVENTFGGGTKVEIK
B7: ch36-F4-H1-D9 (antibody, V domains shown)
VH: EVKLLESGGGLVQPGGSLKLSCAASGFDFSRYWMIWVRQAPEKGLEWIGEINPDSSTINYTPSLKDKFIISRDNAKNTLYLQMSKVRSEDTALYYCARPYYRYDVGYFDVWGAGTTVTVSS
VL: DIVMTQAPKVLLVSAGDRVTISCKASQSVSNAVVWYQQKPGQSPKLLIFYASNRYTGVPDRFTGSGYGTDFTFSISTVQAEDLAVYFCQQDYSSPWTFGGGTKLEIK
B8: ch42-C8-A12-F3-D11 (antibody, V domains shown)
VH: EVHLVESGGDLVKPGGSLKLSCAASGFTFSSHGMSWVRQTPDKRLEWVATISSGGIYTYHPDSVKGRFSISRDNAKKTLYLQMSSLKSEDTGIYYCTRGQVGNWYFDVWGAGTTVTVSS
VL: DIVITQSPAIMSASPGEKVTINCSASSSVSYMHWFQQTPGTSPKLWIYSTSNLASGVPARFSGSGSGTFYSLTISRMEAEDAATYYCQQRSSYPLTFGAGTKLELK
B9: ch25-G9-G4-C12 (antibody, V domains shown)
VH: B8 VH with H3Q, S52N, I56Y, H60Y, S69T, K77N, G92A, I93M, T97A, V101L
VL: B8 VL with I4M, N22T, T38K, F69S
B10: ch27-F11-E10-G10 (antibody, V domains shown)
VH: EVQLVESGGGLVQPGGSRKLSCAASGFTFSSFGMHWVRQAPEKGLEWVAYISSGSSTIYYADTVKGRFSISRDNPKNTLFLQMTSLRSEDTAMFYCARSTGTGAMDYWGQGTSVTVSS
VL: DIQMTQTTSSLSASLGDRVTISCRASQDISNYLNWYQQKPDGTVKLLIYYTSRLHSGVPSRFSGSGSGTDYSLTISNLEQEDIATYFCQQGNTLPWTFGGGTKLELK
B11: ch25-E7-A10-H6 (antibody, V domains shown)
VH: B10 VH with S31T, S69T, F94Y
VL: B10 VL with N31K, L106I
B12: ch27-G5-E9-B8 (antibody, V domains shown)
VH: B10 VH with S69T, F94Y
VL: B10 VL with R18S, I21F, Y49S, T93A, L106I
B13: ch7-B4-C1-C9 (antibody, V domains shown)
VH: EVQLQQSGTELVKPGASVKLSCKASGYTFTNYWMHWVKQRPGQGLEWIGEINPSNGRTNYNEKFKTKATLTVDKSSSTAYMQLSSLTSEDSAVYYCARSTYYGYDWYFDVWGAGTTVTVSS
VL: DIVLTQSPSSMYASLGERVTITCKASQDINSYLSWFQQKPGKSPKTLIYRANRLLDGVPSRFSGGGSGQDYSLTISSLEHEDMGIYYCLQCDEFPHTFGGGTKLEIK

What was measured:
[1] = target: T1, human LILRB4 (human, UniProt Q8NHJ6 22-448); assay: cell-based or functional assay
[2] = target: T2, cynomolgus (Macaca fascicularis) LILRB4 (cynomolgus (Macaca fascicularis)); assay: FACS, CHO-S-cynoLILRB4 cells
T2 construct: whole, on cells; also called cynoLILRB4; CHO-S-cynoLILRB4
Method: (§1) The protocol for FACS analysis is described as follows: [0438] (a) Cells were harvested by centrifugation at 300 g for 3 mins. […] (b) The cells were washed for 2 times with FACS buffer by centrifuging at 300 g for 3 mins and the supernatant was discarded. [0440] (c) Cell were resuspended and seeded into assay plate (2×10⁵ cells/well) in 50 μl FACS buffer. […] Cells were incubated with antibodies at 4° C. for 1 hour. […] (d) Step (b) was repeated and the cells were resuspended with 100 μl diluted 2nd antibody, incubated at 4° C. for 1 hour in the dark. [0442] (e) Step (b) was repeated and the cells were resuspended with 100 μl FACS buffer. The cells were kept in dark for FACS analysis.

[3] = target: T3, human LILRB3 (human, UniProt O75022 24-631); assay: FACS, 293F-hLILRB3 cells
T3 construct: whole, on cells; also called hLILRB3
T3 sequence (O75022 24-631): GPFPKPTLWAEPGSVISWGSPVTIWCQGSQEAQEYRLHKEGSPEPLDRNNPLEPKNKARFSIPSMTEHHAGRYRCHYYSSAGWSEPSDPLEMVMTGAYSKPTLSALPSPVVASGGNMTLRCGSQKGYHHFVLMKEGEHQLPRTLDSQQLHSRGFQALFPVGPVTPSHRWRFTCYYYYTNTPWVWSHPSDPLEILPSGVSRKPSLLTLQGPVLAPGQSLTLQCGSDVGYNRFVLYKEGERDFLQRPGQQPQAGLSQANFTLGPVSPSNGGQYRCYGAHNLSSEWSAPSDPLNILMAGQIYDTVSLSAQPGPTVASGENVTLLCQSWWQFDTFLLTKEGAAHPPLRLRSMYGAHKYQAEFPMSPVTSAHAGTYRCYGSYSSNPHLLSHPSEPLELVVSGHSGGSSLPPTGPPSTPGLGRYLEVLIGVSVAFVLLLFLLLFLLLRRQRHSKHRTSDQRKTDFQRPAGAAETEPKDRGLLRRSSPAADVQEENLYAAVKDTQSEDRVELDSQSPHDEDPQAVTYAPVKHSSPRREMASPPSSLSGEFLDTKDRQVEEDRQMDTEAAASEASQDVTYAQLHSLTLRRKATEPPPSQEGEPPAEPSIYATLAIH
Method: as §1

[4] = target: T1, human LILRB4; assay: cell-based or functional assay; remark: listed apart in the source
[5] = target: T1, human LILRB4; assay: cell-based or functional assay; remark: listed apart in the source
[6] = target: T4, human LILRA6 protein (human, UniProt Q6PI73 24-447, limits assumed); assay: ELISA, LILRA6 protein
T4 construct: protein for ELISA; construct not described; also called hLILRA6 protein
T4 sequence (Q6PI73 24-447 limits assumed): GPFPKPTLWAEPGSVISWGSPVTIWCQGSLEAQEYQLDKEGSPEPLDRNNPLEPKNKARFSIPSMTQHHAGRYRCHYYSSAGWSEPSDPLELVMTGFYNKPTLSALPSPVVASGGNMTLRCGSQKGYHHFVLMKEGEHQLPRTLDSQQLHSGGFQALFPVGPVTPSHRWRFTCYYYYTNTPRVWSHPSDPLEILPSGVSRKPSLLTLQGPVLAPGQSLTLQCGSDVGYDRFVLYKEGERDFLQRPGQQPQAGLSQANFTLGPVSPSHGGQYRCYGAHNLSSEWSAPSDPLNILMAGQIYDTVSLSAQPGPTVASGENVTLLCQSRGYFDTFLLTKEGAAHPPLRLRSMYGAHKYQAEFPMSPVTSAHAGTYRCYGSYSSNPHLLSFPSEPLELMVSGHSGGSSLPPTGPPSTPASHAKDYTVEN

[7] = target: T1, human LILRB4; assay: FACS, 293F-hLILRB4 cells
Method: as §1

[8] = target: T1, human LILRB4; assay: ELISA and FACS on 293F-hLILRB4 cells

Binder	FcγR stimulation (TNF-α, pg/mL) [1] [pg/mL]	Fold change (Compared to isotype) [1] [fold]	EC50 [2] [nM]	binding result [3]	EC50 (nM), ADCC on THP-1 cells [4] [nM]	Max cell cytotoxicity (%), ADCC on THP-1 cells [4] [%]	ADCP (%) at 133.3 nM, macrophages and MV-4-11 cells [5] [%]	binding result [6]	EC50 [7] [nM]	Max MFI [7] [MFI]	ELISA(OD450) [6] [OD450]	binding result [8]	EC50 [3] [nM]
B1	126	3.97	103	no binding (tested: up to 66.67 nM)	1.43	0.43	3.12	no binding	0.57	5470			
B2	266	8.43		no binding (tested: up to 66.67 nM)		14.6	14.1		1.09	54500	0.353		
B3	310	9.82		no binding (tested: up to 66.67 nM)	1.38	31.1	9.35		1.23	41000	0.576		
B4												binds	
B5												binds	
B6	238	7.52		no binding (tested: up to 66.67 nM)	248	13.9	21.8		0.016	39700	0.157		
B7	543	17.2		no binding (tested: up to 66.67 nM)		17.9	14.8	no binding	1.99	48200			
B8	308	9.73				14.5	20.4		1.36	48400	0.32		12.8
B9	356	11.3		no binding (tested: up to 66.67 nM)		11	24.2		1.55	43300	0.687		
B10	393	12.4		no binding (tested: up to 66.67 nM)		18.7	16.3	no binding	1.52	46200			
B11	390	12.3		no binding (tested: up to 66.67 nM)		11.7	11	no binding	1.4	45000			
B12	394	12.5		no binding (tested: up to 66.67 nM)		16.4	14.8	no binding	1.75	44300			
B13	415	13.1		no binding (tested: up to 66.67 nM)		13.9	11.8	no binding	0.54	47300			
